Results published in patent US20200199231A1 (Genmab, published 2020).
Like-named read-outs stand apart in the source and are kept apart here.

Tests used:
human CD20 [1] = target: T1, human CD20 (human, UniProt P11836 1-297); test: flow cytometry on Daudi cells (CD20-positive, CD3-negative); PE-conjugated goat anti-human IgG F(ab')2; median FI (PE)
T1 construct: whole, on cells; On Daudi and other human B cell lines, on human B cells in blood, or transiently expressed in HEK293F cells (construct pEE12.4CD20HS-GA); also called wild type CD20; WT CD20
T1 sequence (looked up): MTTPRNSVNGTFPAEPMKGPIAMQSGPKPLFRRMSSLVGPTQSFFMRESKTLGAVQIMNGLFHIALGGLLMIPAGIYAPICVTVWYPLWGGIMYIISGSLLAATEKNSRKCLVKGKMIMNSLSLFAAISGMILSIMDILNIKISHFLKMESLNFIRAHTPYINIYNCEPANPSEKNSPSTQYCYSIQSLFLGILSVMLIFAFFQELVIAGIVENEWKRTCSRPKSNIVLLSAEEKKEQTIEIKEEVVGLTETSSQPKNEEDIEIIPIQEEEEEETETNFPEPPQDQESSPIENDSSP
Method: (§1) In addition to the non-activating mutations, L234F, L235E, D265A, on both arms, the bispecific antibody contained an F405L mutation on one arm and a K409R mutation on the other arm.
(§2) Cells (1×10⁵ cells/well) were incubated in polystyrene 96-well round-bottom plates (Greiner bio-one, cat. no. 650101) with serial dilutions of antibodies (range 0.041 to 30 μg/mL in 3-fold dilution steps [A-E] and 0.00061 to 10 μg/mL in 4-fold dilution steps [F-I]) in 100 μL PBS/0.1% BSA/0.02% azide (from here designated as staining buffer) at 4° C. for 30 min.
(§3) After washing twice in staining buffer, cells were incubated in 50 μL secondary antibody at 4° C. for 30 min. As a secondary antibody, R-Phycoerythrin (PE)-conjugated goat-anti-human IgG F(ab′)₂ (cat. no. 109-116-098, Jackson ImmunoResearch Laboratories, Inc., West Grove, Pa.) diluted 1:200 in staining buffer, was used for all experiments. Next, cells were washed twice in staining buffer, re-suspended in 30 μL staining buffer and analyzed on an iQue screener (Intellicyt Corporation, USA) (for FIG. 1A-E) or re-suspended in 100 μL staining buffer and analyzed on a FACSCANTOII (BD Biosciences) (FIG. 1F-I). Binding curves were analyzed using non-linear regression (sigmoidal dose-response with variable slope) using GraphPad Prism V75.04 software (GraphPad Software, San Diego, Calif., USA).

human CD20 [2] = target: T1, human CD20; test: as above; remark: listed apart in the source
Method: as §1, §2, §3

EC50 (read off the curve) (human CD20 [1]): ~0.3 µg/mL | EC50 (read off the curve) (human CD20 [2]): ~0.3 µg/mL
B1: IgG1-7D8-FEAR (antibody, V domains shown)
VH: EVQLVESGGGLVQPDRSLRLSCAASGFTFHDYAMHWVRQAPGKGLEWVSTISWNSGTIGYADSVKGRFTISRDNAKNSLYLQMNSLRAEDTALYYCAKDIQYGNYYYGMDVWGQGTTVTVSS
VL: EIVLTQSPATLSLSPGERATLSCRASQSVSSYLAWYQQKPGQAPRLLIYDASNRATGIPARFSGSGSGTDFTLTISSLEPEDFAVYYCQQRSNWPITFGQGTRLEIK
